Experimental data reported in patent EP1662255A2 (THE JOHNS HOPKINS UNIVERSITY SCHOOL OF MEDICINE, dated 2006).

T1: carboxy-terminal 347 amino acids of GKAP-3 (amino-terminal myc tag) (rat, UniProt P97838 631-977)
T1 construct: domain: carboxy-terminal 347 amino acids; also called GKAP-3/SAPAP3 carboxy-terminus
T1 sequence (looked up): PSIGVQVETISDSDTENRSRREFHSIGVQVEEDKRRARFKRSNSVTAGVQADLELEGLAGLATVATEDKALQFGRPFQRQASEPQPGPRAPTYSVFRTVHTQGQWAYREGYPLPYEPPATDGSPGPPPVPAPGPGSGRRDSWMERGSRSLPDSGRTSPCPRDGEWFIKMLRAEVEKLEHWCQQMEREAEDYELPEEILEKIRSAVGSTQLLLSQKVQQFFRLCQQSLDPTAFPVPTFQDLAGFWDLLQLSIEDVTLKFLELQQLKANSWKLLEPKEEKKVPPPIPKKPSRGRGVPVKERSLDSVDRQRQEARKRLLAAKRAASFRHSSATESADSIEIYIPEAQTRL

T2: GKAP1 (native, rat brain extracts) (rat, UniProt P97836 1-992)
T2 construct: mature
T2 sequence (looked up): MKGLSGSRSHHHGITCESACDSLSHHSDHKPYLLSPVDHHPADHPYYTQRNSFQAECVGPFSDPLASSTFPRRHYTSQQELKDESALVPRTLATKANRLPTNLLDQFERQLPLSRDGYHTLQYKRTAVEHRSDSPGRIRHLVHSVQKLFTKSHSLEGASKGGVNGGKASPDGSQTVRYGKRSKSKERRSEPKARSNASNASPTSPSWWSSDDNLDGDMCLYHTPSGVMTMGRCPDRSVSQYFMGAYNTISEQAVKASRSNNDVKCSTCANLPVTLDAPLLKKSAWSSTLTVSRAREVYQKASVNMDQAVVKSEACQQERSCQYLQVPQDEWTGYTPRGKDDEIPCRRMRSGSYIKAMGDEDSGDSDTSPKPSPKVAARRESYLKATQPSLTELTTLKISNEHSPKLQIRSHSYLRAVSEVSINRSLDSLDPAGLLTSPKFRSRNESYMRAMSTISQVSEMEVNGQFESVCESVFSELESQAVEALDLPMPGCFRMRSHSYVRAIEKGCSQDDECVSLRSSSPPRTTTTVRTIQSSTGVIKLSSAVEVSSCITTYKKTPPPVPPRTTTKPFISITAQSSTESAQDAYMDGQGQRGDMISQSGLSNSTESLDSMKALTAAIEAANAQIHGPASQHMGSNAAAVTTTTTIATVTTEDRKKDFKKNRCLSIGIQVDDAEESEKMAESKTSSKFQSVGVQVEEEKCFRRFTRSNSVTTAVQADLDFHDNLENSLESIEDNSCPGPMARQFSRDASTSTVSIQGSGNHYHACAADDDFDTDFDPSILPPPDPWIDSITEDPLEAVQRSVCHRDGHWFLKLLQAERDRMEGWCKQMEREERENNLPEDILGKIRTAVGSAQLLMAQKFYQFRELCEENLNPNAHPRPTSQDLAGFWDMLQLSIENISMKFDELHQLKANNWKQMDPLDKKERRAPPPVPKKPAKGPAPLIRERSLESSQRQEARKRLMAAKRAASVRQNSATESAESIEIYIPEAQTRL

B1: SAP102 PDZ1-3 (GST fusion) (other, UniProt Q62936 149-484, looked up)
chain: EIVLERGNSGLGFSIAGGIDNPHVPDDPGIFITKIIPGGAAAMDGRLGVNDCVLRVNEVDVSEVVHSRAVEALKEAGPVVRLVVRRRQPPPETIMEVNLLKGPKGLGFSIAGGIGNQHIPGDNSIYITKIIEGGAAQKDGRLQIGDRLLAVNNTNLQDVRHEEAVASLKNTSDMVYLKVAKPGSLHLNDMYAPPDYASTFTALADNHISHNSSLGYLGAVESKVTYPAPPQVPPTRYSPIPRHMLAEEDFTREPRKIILHKGSTGLGFNIVGGEDGEGIFVSFILAGGPADLSGELRRGDRILSVNGVNLRNATHEQAAAALKRAGQSVTIVAQYR
notes: domain: PDZ 1-3; also called SAP102 PDZI-3; not shown: glutathione S-transferase fusion partner
B2: recombinant mGluR5 carboxy-terminal 241 amino acid peptide (receptor, UniProt P31424 963-1203, looked up)
chain: AAGGGSGPGVAGAGNAGCTATGGPEPPDAGPKALYDVAEAEESFPAAARPRSPSPISTLSHLAGSAGRTDDDAPSLHSETAARSSSSQGSLMEQISSVVTRFTANISELNSMMLSTAATPGPPGTPICSSYLIPKEIQLPTTMTTFAEIQPLPAIEVTGGAQGATGVSPAQETPTGAESAPGKPDLEELVALTPPSPFRDSVDSGSTTPNSPVSESALCIPSSPKYDTLIIRDYTQSSSSL
notes: domain: carboxy-terminal 241 amino acids; Expressed in heterologous cells for GST pulldown; also called mGluR5 carboxy-terminal tail; mGluR5 C-terminal tail
B3: GST-GKAP(carboxy-terminal) (other, UniProt P97836-5 591-666, looked up)
chain: MDPLDKKERRAPPPVPKKPAKGPAPLIRERSLESSQRQEARKRLMAAKRAASVRQNSATESAESIEIYIPEAQTRL
notes: domain: carboxy-terminal 76 amino acids; also called carboxy-terminal 76 amino acids of GKAP1a fused to GST; not shown: glutathione S-transferase fusion partner
B4: GRIP PDZ 4-6 (GST fusion) (other, UniProt P97879 471-754, looked up)
chain: EVVLTADPVTGFGIQLQGSVFATETLSSPPLISYIEADSPAERCGVLQIGDRVMAINGIPTEDSTFEEANQLLRDSSITSKVTLEIEFDVAESVIPSSGTFHVKLPKKHSVELGITISSPSSRKPGDPLVISDIKKGSVAHRTGTLELGDKLLAIDNIRLDSCSMEDAVQILQQCEDLVKLKIRKDEDNSDEQESSGAIIYTVELKRYGGPLGITISGTEEPFDPIIISSLTKGGLAERTGAIHIGDRILAINSSSLKGKPLSEAIHLLQMAGETVTLKIKKQT
notes: domain: PDZ 4-6; also called PDZ domains of GRIP; not shown: glutathione S-transferase fusion partner

Columns and labels:
[1] = target: T1, carboxy-terminal 347 amino acids of …; experiment: GST pulldown from HEK293 lysate
[2] = target: B4; experiment: GST pulldown from extracts of heterologous cells
[3] = target: B1; experiment: GST pulldown from extracts of heterologous cells
[4] = target: T2, GKAP1 (native, rat brain extracts); experiment: GST pull-down from rat brain extracts

Binder: B1
- binding result [1]: no binding

Binder: B2
- binding result [2]: no binding
- binding result [3]: no binding

Binder: B3
- binding result [4]: no binding

Binder: B4
- binding result [1]: no binding
